The Kd is the constant that tells how readily two partners part at equilibrium. As a reminder, the IC50 is the concentration that gives 50% inhibition. High values mean weaker potency, low ones greater potency.

The results in this text go back to patent publication US20230272067A1 (published 2023).

Assay [1] addresses T1, extracellular domain (ECD) of human TIGIT (human, UniProt Q495A1 22-141, biotinylated (site not stated)).
T1 chain: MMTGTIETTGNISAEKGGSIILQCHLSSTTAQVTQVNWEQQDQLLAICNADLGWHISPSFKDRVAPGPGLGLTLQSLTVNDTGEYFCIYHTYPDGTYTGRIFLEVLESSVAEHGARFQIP
Briefly: SPR (Biacore T200, multi-cycle).

In assay [2] the target is T2, extracellular domain (ECD) of mouse TIGIT (mouse, UniProt P86176 29-148, biotinylated (site not stated)).
T2 chain: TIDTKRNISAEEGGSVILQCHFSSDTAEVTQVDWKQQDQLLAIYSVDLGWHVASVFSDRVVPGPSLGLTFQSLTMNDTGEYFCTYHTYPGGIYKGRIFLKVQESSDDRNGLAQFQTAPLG
In words: SPR (Biacore T200, multi-cycle). A general note: In SPR one partner is held on a chip, and binding of the other changes the refractive index at the surface.

Assay [3] has as its target T1, extracellular domain (ECD) of human …. Briefly: SPR (Biacore T200, multi-cycle).
The target in assay [4] is T2, extracellular domain (ECD) of mouse …. Briefly: SPR (Biacore T200, multi-cycle).
Assay [5] addresses T1, extracellular domain (ECD) of human …. In words: competition ELISA; competition with hCD112. Background: An ELISA detects its analyte on a solid surface through an enzyme-linked reagent.
For assay [6] the target is unchanged. In words: competition ELISA; competition with hCD155.
In assay [7] the target is T2, extracellular domain (ECD) of mouse …. Briefly: competition ELISA; competition with mCD155.

Like-named read-outs stand apart in the source and are kept apart here.

B1: T4M (antibody, V domains shown)
VH: QVQLQQWGAGLLKPSETLSLTCAVYGGSFNDYYWTWIRQAPGKGLEWIGEITHSGSADYNPSLKSRVTISVDTSKNQFSLKLRSVTAADTAVYYCARGLKLFRWKKTTVTTFPPYYYGMDVWGQGTTVTVSS
VL: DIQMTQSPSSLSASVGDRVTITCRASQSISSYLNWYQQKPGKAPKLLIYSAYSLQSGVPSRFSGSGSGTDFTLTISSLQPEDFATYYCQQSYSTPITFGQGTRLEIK
In the case of B1, the Kd is 8.75 nM in assay [1] and 2.74 nM in assay [2].

B2: CS19ME3-23 (antibody, V domains shown)
VH: EVQLLESGGGLVQPGGSLRLSCAASGFTFSSYAMHWVRQAPGKGLEWVAVISYDGSNKYYADSVKGRFTISRDNSKNTLYLQMNSLRAEDTAVYYCATLEGGGRYYDFWSADYWGQGTLVTVSS
VL: QSALTQPRSVSGSPGQSVTISCTGTSSDVGGYNFVSWYQQHPGKAPKLLIYAVSKRPSGVPDRFSGSKSGNTASLTISGLQAEDEADYYCSSYSSESTRVVFGGGTKLTVL
For B2, the Kd in assay [3] worked out at 3.49 nM; in assay [4], 21.6 nM.

B3: CS19ME3-30-N (antibody, V domains shown)
VH: QVQLVESGGGVVQPGRSLRLSCAASGFTFSSYAMHWVRQAPGKGLEWVAVISYDGSNKYYADSVKGRFTISRDNSKNTLYLQMNSLRAEDTAVYYCATLEGGGRYYDFWSADYWGQGTLVTVSS
VL: QSALTQPRSVSGSPGQSVTISCTGTSSDVGGYNFVSWYQQHPGKAPKLLIYAVSNRPSGVPDRFSGSKSGNTASLTISGLQAEDEADYYCSSYSSESTRVVFGGGTKLTVL
On to B3, for which the Kd stood at 3.36 nM in assay [3] and 2.85 nM in assay [4]. The IC50 in assay [5] came out at 0.9 µg/mL; in assay [6], 1.18 µg/mL; in assay [7], 0.67 µg/mL.
